Measurements as given in the DeepSol protein solubility set.

experiment: soluble on expression in E. coli; label from the status in PepcDB or PDB records

Sequence	soluble on expression in E. coli
MSLQQPLAYRMRPRTIDEVVGQQHLVGEGKIIRRMVDARMLSSMILYGPPGTGKTSIASAIAGSTNYAFRMLNAATDSKKDLQVVAEEAKMSGTVILLLDEVHRLDKTKQDFLLPHLESGRIILIGATTENPYITINPAIRSRTQIFEVKPLTEQDIQLAVEHALRDKERGLGQQAIQLDEDALLHLSRATNGDLRSALNGLELATLSTPSDKEGRIHLTLSIIEECVQRKALTHDKNGDAHYDVISAFQKSIRGSDVDAALHYLARLVEAGDLASICRRLMVIGYEDIGLGNPAAAARTVNAVLAAEKLGLPEARIPLADVVVDLCLSPKSNSAYMALDAALADIREGKAGDVPDHLRDSHYKGAKSLNRGVGYQYPHHFDQAWVNQQYLPDKLKNAQYYQPKDTGKYEQALGQQYYRIKEWKEGHHHHHH	soluble
MSRRAPMFKPLPITLQRGALRLEPLVEADIPELVSLAEANREALQYMDGPTRPDWYRQSLAEQREGRALPLAVRLGVQLVGTTRFAEFLPALPACEIGWTWLDQAQHGSGLNRMIKYLMLKHAFDNLRMVRVQLSTAASNLRAQGAIDKLGAQREGVLRNHRRLAGGRLDDTFVYSITDHEWPQVKAALEASFTG	soluble
MIFSVDKVRADFPVLSREVNGLPLAYLDSAASAQKPSQVIDAEAEFYRHGYAAVHRGIHTLSAQATEKMENVRKRASLFINARSAEELVFVRGTTEGINLVANSWGNSNVRAGDNIIISQMEHHANIVPWQMLCARVGAELRVIPLNPDGTLQLETLPTLFDEKTRLLAITHVSNVLGTENPLAEMITLAHQHGAKVLVDGAQAVMHHPVDVQALDCDFYVFSGHKLYGPTGIGILYVKEALLQEMPPWEGGGSMIATVSLSEGTTWTKAPWRFEAGTPNTGGIIGLGAALEYVSALGLNNIAEYEQNLMHYALSQLESVPDLTLYGPQNRLGVIAFNLGKHHAYDVGSFLDNYGIAVRTGHHCAMPLMAYYNVPAMCRASLAMYNTHEEVDRLVTGLQRIHRLLG	soluble
MSCGSNRGNEMKDKYDVLVIGAGPAGSIAAKTAAEKGLDVLLIEKRQEIGDPVRCAEGVNKECLKKHVEIDKRWICADLKGSCIFSPDGTKIEMAEEISGGEVGYVLERKVFDRALAEHAATAGAEVRVKTRATGLIIEDDFVKGARLMHLGKEYEVRASIVIGADGVESKVGRWAGIDTALKPVDVETCAQYLIAGADINQEYCEFYIGNEMAPGGYVWVFPKGGGKANVGIGILGSKMGKFKPRPVDYLNDFVQKKFPDARIVEMVFGGVPVSGSIEKTSVNGLMLVGDAARQSDPITGGGILNAMDAGKLAGEAAYEAISAGDVSVVKLEEVYEKKWRDTVGHDIDMSLIVKNCFINLTDDDLDSLAHSLKDVKFERMSLLDLLQALFKANKKLLWDLRVLFKDAAKEVIKNKTLEHHHHHH	soluble
MGSDKIHHHHHHMMCFSCRVTSDAKVVFLDVIPTPQDIISDFSYICLLLTIKFEYMENISRRTAIKTFLAGGVALATTGIEAAAAAKKKTDVKEPLKGNVRHSVSKWCFGDYKLDEFCEICKHIGIESVELLDPVDWPIVQKHGLTVAMAQGAGLGIDRGFNDPALHDELVASYEKVIPMVADAGLTNLICFSGRRNGVTDLQGWENCEKGLKRLIPLAEKHKVVLTMELLNSVGHKDYLCDHTVWGAELCRRIGSPNFKLLYDIYHMQIMEGNIIENIRKYHPYFSHVHTGGSPGRAEIDETQELYYPAIIKALMETGYKGFVGQEFVPAQEDKIASLEKCIRICDV	not soluble
GSHMVVELAYTDPDRAVDWLVRVFGFRLLLRQPAIGTIRHADLDTGGGIVMVRRTGEPYTVSCAGGHTCKQVIVWVSDVDEHFMRSTAAGADIVQPLQDKPWGLRQYLVRDLEGHLWEFTRHLRDVPPREWGAVAMT	soluble
GLDALFERAVESVAAGLNTEYSKVLEYRPADNKFLLRAGVGWQSGLVGEAAVGAGEESQAGYTLQTEEPVVVEDLRTESRFSGPSLLLDHGVVSGISVIIGTTTEPWGVLGAHTSERRPFTKDDITFVRGVANTLTNAIEREQLEGTLRQAEQRYKTLLENFP	not soluble
MGDITNEMIWQAIKELAEQLQQTNGQVQQLSQQVQQTNEQVQQLGQQIQHLNSQVQQLNHQVQQTHEQVGQLAKQVQQTNEQLNQLSQQVADMDKRLTDVANGQNILVEELFENKKEIKRVKTALNMY	not soluble
MKKVLILGGGIAGVAAAIAFRKRGFEVEVVSDREFLFIYPIAIWIPVGTERFRNVAFPLEKVARKHGFSLTLDTVTAINASRDSVTLEKAGQRSDFDFLVIALGSDKMKHEGIEHTLSICGAPEHSIRLKEKIDALIERGHGKIAFGFGGNPKDPSAVRGGPGFELFFNLHHKLTKLGIRDNFEMTFFAPMAQPGAKMGQKALDMMAVMFKAKNFRQRYGKKITRFEVDGVVFEDGSKLESDLTMFIPAGSGHSVFRNSDLPLSEAGFVKIDDFCRVVGVDGWYAVGDSAALEGPEWKAKQGHIAEFMADCAANNCLAEHFGHQEPMRGYQEHLNVLCVMDTGDGAGFVYRTGHSEMFIPMPVVGHWLKKAWGYYYKLSKMKYIPRIPGMLEHHHHHH	soluble
MEVPVHPLSQDPTAAWREISKTQRVIKVTMKPPTTTVAPNKARVVCMSDTHSLTPYIKFDIPDGDIFIHAGDFTKCGQLEEVEEFNTWIGALPHRHKIVIAGNHELSFDRTFTHPFQKSKSHASSSKHTGMSILDDLPTLGNAKENLESAVQTQNVRDVLTNCRYLEDELLEIWGIQIYGSPWQPEFCRWAFNVPRGTACLDKWNQIPEGIDILVTHTPPVGHGDLCCSGVRAGCVELLSTVQQRVRPKYHVFGHVHEGYGITSDGRIIFVNASTCDINYLPNNAPIVFDVTLPPGFRKDLEHHHHHH	soluble
MGSDKIHHHHHHMAKFDIITIEDKIQQLLEDGFDQASFIYEFLSFYDISKTAITRIRKEQSGEIKNKLYYKTVPTDKSVVAGVAEIEEAIKDKKSQPRYIIVTNFVDFAAKDTKTFDTLQIPFKDLPTYADFFLAWNGVEKVDYAKENPADIKAAERFTRLYDELKKINHFDDRSQEEKEFNLFLIRLLFLLFAEDTEIMKKGIFTNAIKTRSREDGSDLNTLFNQIFASLDIANRLSQENWLQEFPYVNGKLFTDASTDLVFDKKTRKLILEAGELLNWNEINPDILGAMIQTVASSEHRSSSGMHYTSVENIMKVIKPLFLDELTANFQTIVDKINENEDKDITERTRRENRAAYEKELSTLHEHLSKIKFFDPACGSGNFLIITYKELRRLEIRLLKALRELRQDGKIDFFETSKISLNQFYGIELDDFAHEVARLSLWIAEYQMNLEALNEINLQSAFLPLRDAGNITQGNALRLDWDKVVPHTPTDEIYLIGNPPYIGAKIAK	not soluble
MSKSESPKEPEQLRKLFIGGLSFETTDESLRSHFEQWGTLTDCVVMRDPNTKRSRGFGFVTYATVEEVDAAMNARPHKVDGRVVEPKRAVSREDSQRPGAHLTVKKIFVGGIKEDTEEHHLRDYFEQYGKIEVIEIMTDRGSGKKRGFAFVTFDDHDSVDKIVIQKYHTVNGHNCEVRKALSKQEMASASSSQRGR	soluble
SENDVIELDDVANLMFYGEGEVGDNHQKFMLIFDTGSANLWVPSKKCNSIGCSTKHLYDSSKSKSYEKDGTKVEITYGSGTVRGFFSKDLVTLGYLSLPYKFIEVTDTDDLEPLYTAAEFDGILGLGWKDLSIGSIDPIVVELKNQNKIDQALFTFYLPVHDKHSGYLTIGGIEEKFYEGELTYEKLNHDLFWQVDLDVNFGKTSMEKANVIVDSGTSTITAPTSFINKFFKDLNVIKVPFLPFYITTCNNKDMPTLEFKSANNTYTLEPEYYMEPLLDIDDTLCMLYILPVDIDKNTFILGDPFMRKYFTVFDYDKESIGFAVAKN	soluble
MKKYADDSLMLHTDLYQINMVETYWEDRMHERRAVFEVFFRKLPFGNGYAVFAGLERVIQFLQQFRFSDSDIDYLRQELGYRDDFLDYLRTLRFTGTVRSMREGEVVFANEPIMRIEAPLAEAQLIETAILNIINFQTLIATKASRIKHILGDEPALEFGSRRAQEMDAALWGARAAYIGGIEATSNVRAGKLFGIPVAGTHAHSMIQAYQDEYTAFLKYARRHKDCVFLVDTYDTLKSGVPNAIRVAKELGDQINFIGIRIDSGDLAYLSKEARKMLDEAGFPNAKIFASNDLDEDTILNLKSQGAKIDVWGIGTKLITAYDQPALGAVYKMVAIENERGEMVDTIKISGNPEKVTTPGLKRVYRIVNKINHKAEGDYIALESENPQQEERLKMFHPVYTFISKFVTNFEARDLHVTIFDNGRLVYTSPPLPDIQAYAKESLRLFWEEYKRTLNPEQYPVDLSQACWDNKMENIRKVKEKIAGASLSE	not soluble
MSLNKIKRITAYKIDLPLKEGSYNWSEGKSVSVFDSTVIAVETENGTIGYGECCPLGPFYLPSYAEGVRAGIKELGPHLIGLDATNLFYLNHIMDRSLKGHPYVKSPIDVACWDIKGKTAGLPVSNLLGGVYDEDFILYRAISQDQPEAMADKVKEYRDQGYRRFQLKVGGNADEDIKRIRSVAEKMETGDKLIADANTGWLTHEAVRVVNGVSDIDVYIEQPCLSYDECFAVRKKTNHPFILDESINNMRTLLKAYHDQAMDAVNIKISKFGGITKAALARDICSELGIAMTIEDTWGGDIVTAAIAHLAHTTDPKLLFTATDFNSYVTVDIASGAPKRENGRMKSSKDPGLGIKPLSEVLGDSVVDIEGHHHHHH	not soluble
MGSDKIHHHHHHSDFLNLTPYSEITAENFYQNEEDFRQAVNGAYEPLRNMYNTEEWNLGEAKSDNTTYIIHIAKSSLDGEDPDQFLETSTNGNVGTKYNNCYVIIGRCNRIISEIDQADFDAEAKSNLKGQALFLRAFCYFNLVQYFGGVPLHTTPSTVYEEAFKPRASVDEVYEQIMKDAQEASDLLPVKSRQEVGRVSKGSAQTLLGNVYMVLKRWAEAEQTLKEVVSSGEYELLADYGSIYSISNKNHKESIFEIQYMQDASLGQQSDFIYRFLPYMTNPSAITGTTPNPCPSNVDHGGFNTPTIDLINAYEKGDKRLDASIGMVEGKLTDSYALDATGVKSIVDYEPAPGITAYPFIKKYFHEHIKPYYTDDNWPVYRYAEVLLFLAEAINEQNRPDEAIHYLNDTFGQASIRGRAGLAPVKSQNVDALREAIYQERRIELAFENKRWTDLLRTGRAVEVMTRHGQKIKANPESYYWPDGVQPVANAYLFNPDKCLLPIPLREIDLNSELKQNPGY	not soluble
MGSDKIHHHHHHMFKNVSWKLKEHSELKKYGIDHNILLDVVSRERRKIYFDYWKNLPKLVTSSLGLKFTDGTPVDALYEVFIEGIYDVDGFRPKMGDVVVDVGANYGDSSIWWAKKKFGAKVIAFEPLADVFHELEKNIRINHADVIAYNVALGNGNFINGSKQGNMFVAGGQAKIQTSRLDDYTFDRLDLLKIDVEGFEHDVLLGARSTISKFKPKIIIETHSVALRKLCHEFLISLGYSLSLEGRTIRAHSPGMDKVTNLFYSPII	not soluble
MGSSHHHHHHSSGRENLYFQGHMAQLYFYYSAMNAGKSTALLQSSYNYQERGMRTVVYTAEIDDRFGAGKVSSRIGLSSPAKLFNQNSSLFDEIRAEHEQQAIHCVLVDECQFLTRQQVYELSEVVDQLDIPVLCYGLRTDFRGELFIGSQYLLAWSDKLVELKTICFCGRKASMVLRLDQAGRPYNEGEQVVIGGNERYVSVCRKHYKEALQVDSLTAIQERHRHD	soluble
MTRPLIVAAVIGSALAWHGSAQAQHSQAVAPAEPCTPVVLIERTGTCYAQVDPRFVTTLYFPRMVTSAVSSDERYFRASIVDDSVIVRPARDIDADALGNLSITAGEMKVSIMLGVAGHSSEVLPQIDFRALSEAEVFDARVAAEAERLHQDVKREYERRHRELEGEVTREATQLVGERLLQRHEPVRIDAIARNDDNVIVRVERGVWVGHELYLFFTVQNRSGTPYRVTHVGVFEESEHRAVADAGRAGQVEFDSAAPLVAGLLGTVRVDQFGRGVVHVRDARGAAGRRMTLRVSEERGERPVSVGGLSWR	not soluble
